± gives the uncertainty stated by the source.
B1: Advillin, residues 785 to 819; numbered along this chain, O75366 (parent)
chain: LSEQDFVSVFGITRGQFAALPGWKQLQMKKEKGLF

Variants of: B1
Assay: abundance fitness (aPCA) (normalised: wild type 0, dead -1); higher = more abundant; growth selection in yeast, the domain comes from the species named
Conditions: Homo sapiens
Work on A18I yielded an abundance fitness of -0.1 ± 0.1.
A18K showed an abundance fitness of 0.188 ± 0.12.
A18R gave an abundance fitness of -0.197 ± 0.067.
A18Q gave an abundance fitness of -0.05 ± 0.1.
A18W gave an abundance fitness of -0.358 ± 0.088.
A18E gave an abundance fitness of 0.214 ± 0.063.
A18P showed an abundance fitness of -0.438 ± 0.16.
A18G showed an abundance fitness of -0.103 ± 0.059.
Variant G22Y has an abundance fitness of -0.093 ± 0.1.
For G22N, the abundance fitness was -0.2 ± 0.11.
G22S gave an abundance fitness of -0.108 ± 0.078.
Work on G22F yielded an abundance fitness of -0.138 ± 0.079.
Work on G22V yielded an abundance fitness of -0.021 ± 0.082.
Variant G22W has an abundance fitness of -0.405 ± 0.076.
Work on A19D yielded an abundance fitness of -0.068 ± 0.13.
Work on A19L yielded an abundance fitness of -0.137 ± 0.082.
With A19I the abundance fitness was -0.5 ± 0.35.
Variant A19S has an abundance fitness of -0.068 ± 0.078.
Variant A19E has an abundance fitness of 0.021 ± 0.063.
For A19N, the abundance fitness was -0.052 ± 0.18.
Variant A19Y has an abundance fitness of -0.409 ± 0.12.
For A19C, the abundance fitness was -0.209 ± 0.16.
For F17E, the abundance fitness was -0.33 ± 0.07.
With F17Y the abundance fitness was -0.969 ± 0.14.
F17V showed an abundance fitness of -0.396 ± 0.072.
F17A showed an abundance fitness of -0.389 ± 0.059.
For F17Q, the abundance fitness was -0.344 ± 0.18.
For G15A, the abundance fitness was 0.16 ± 0.052.
For G15T, the abundance fitness was -0.052 ± 0.063.
G15I gave an abundance fitness of 0.042 ± 0.076.
G15L gave an abundance fitness of -0.215 ± 0.069.
In the case of R14E, the abundance fitness is reported as -0.024 ± 0.082.
R14S gave an abundance fitness of -0.169 ± 0.058.
In the case of R14W, the abundance fitness is reported as -0.349 ± 0.066.
For R14G, the abundance fitness was -0.317 ± 0.063.
In the case of Q27T, the abundance fitness is reported as -0.459 ± 0.07.
For Q27L, the abundance fitness was -0.297 ± 0.061.
For Q27D, the abundance fitness was -0.3 ± 0.21.
With Q27P the abundance fitness was -0.589 ± 0.083.
With Q27G the abundance fitness was -0.333 ± 0.061.
With S8F the abundance fitness was -0.476 ± 0.18.
With S8A the abundance fitness was 0.052 ± 0.078.
Work on S8Y yielded an abundance fitness of -0.84 ± 0.26.
With D5W the abundance fitness was -1 ± 0.11.
Work on D5Y yielded an abundance fitness of -0.782 ± 0.32.
Variant D5K has an abundance fitness of -0.146 ± 0.075.
In the case of D5G, the abundance fitness is reported as -0.188 ± 0.068.
D5E gave an abundance fitness of -0.073 ± 0.075.
In the case of D5M, the abundance fitness is reported as -0.332 ± 0.14.
In the case of D5S, the abundance fitness is reported as -0.031 ± 0.06.
With D5R the abundance fitness was -0.188 ± 0.068.
For D5L, the abundance fitness was -0.209 ± 0.059.
Work on G11S yielded an abundance fitness of -0.353 ± 0.071.
G11M gave an abundance fitness of -0.986 ± 0.16.
For G11F, the abundance fitness was 0.179 ± 0.074.
G11T showed an abundance fitness of -0.547 ± 0.12.
G11A showed an abundance fitness of -0.485 ± 0.063.
Work on G11E yielded an abundance fitness of -0.65 ± 0.093.
Work on G11P yielded an abundance fitness of -0.797 ± 0.11.
In the case of G11W, the abundance fitness is reported as -0.846 ± 0.14.
In the case of F10K, the abundance fitness is reported as -0.319 ± 0.089.
Variant F10G has an abundance fitness of -0.27 ± 0.058.
F10S showed an abundance fitness of -0.383 ± 0.067.
L26T gave an abundance fitness of -0.075 ± 0.064.
Work on L26V yielded an abundance fitness of 0.073 ± 0.057.
With L26K the abundance fitness was 0.068 ± 0.089.
For L26P, the abundance fitness was -0.914 ± 0.18.
In the case of L26C, the abundance fitness is reported as -0.606 ± 0.089.
Variant Q25A has an abundance fitness of -0.525 ± 0.066.
With Q25S the abundance fitness was -0.735 ± 0.14.
Variant Q25E has an abundance fitness of -0.593 ± 0.069.
Q25K showed an abundance fitness of -0.31 ± 0.081.
Work on Q25V yielded an abundance fitness of -0.604 ± 0.11.
Q25L showed an abundance fitness of -0.456 ± 0.074.
L34K gave an abundance fitness of -0.003 ± 0.064.
Work on L34V yielded an abundance fitness of -0.122 ± 0.069.
With L34R the abundance fitness was -0.112 ± 0.058.
With L34T the abundance fitness was 0.143 ± 0.064.
In the case of L34E, the abundance fitness is reported as 0.266 ± 0.08.
With L34S the abundance fitness was 0.177 ± 0.069.
For L34A, the abundance fitness was 0.128 ± 0.061.
Variant L34H has an abundance fitness of 0.042 ± 0.1.
In the case of L34Q, the abundance fitness is reported as 0.098 ± 0.078.
Variant Q16V has an abundance fitness of -0.422 ± 0.12.
Q16E showed an abundance fitness of -0.053 ± 0.077.
Q16D gave an abundance fitness of -0.347 ± 0.2.
In the case of Q16Y, the abundance fitness is reported as -0.252 ± 0.17.
Variant Q16I has an abundance fitness of -0.396 ± 0.41.
Variant Q16W has an abundance fitness of -0.626 ± 0.1.
G33S gave an abundance fitness of -0.108 ± 0.074.
For G33P, the abundance fitness was 0.191 ± 0.14.
Variant G33R has an abundance fitness of -0.235 ± 0.071.
K30E showed an abundance fitness of 0.147 ± 0.082.
Variant K30L has an abundance fitness of -0.192 ± 0.058.
Work on K30V yielded an abundance fitness of -0.076 ± 0.063.
Variant K30G has an abundance fitness of -0.159 ± 0.055.
Variant F35I has an abundance fitness of 0.312 ± 0.2.
F35L gave an abundance fitness of 0.197 ± 0.14.
With F35C the abundance fitness was 0.179 ± 0.086.
Variant F35P has an abundance fitness of 0.054 ± 0.084.
Work on F35A yielded an abundance fitness of -0.334 ± 0.29.
In the case of T13F, the abundance fitness is reported as -0.368 ± 0.2.
For T13M, the abundance fitness was -0.369 ± 0.14.
T13Y gave an abundance fitness of -0.017 ± 0.26.
In the case of F6S, the abundance fitness is reported as -0.488 ± 0.087.
Work on F6R yielded an abundance fitness of -0.468 ± 0.051.
With F6Q the abundance fitness was -0.402 ± 0.079.
F6A gave an abundance fitness of -1.28 ± 0.14.
With F6V the abundance fitness was -1.19 ± 0.088.
For F6D, the abundance fitness was -0.831 ± 0.1.
Work on F6I yielded an abundance fitness of -0.162 ± 0.12.
V9A gave an abundance fitness of -0.222 ± 0.064.
With V9G the abundance fitness was -0.286 ± 0.066.
In the case of V9M, the abundance fitness is reported as -0.184 ± 0.093.
In the case of V9T, the abundance fitness is reported as -0.141 ± 0.071.
Work on V9F yielded an abundance fitness of -0.422 ± 0.1.
In the case of K29C, the abundance fitness is reported as -0.024 ± 0.06.
K29T gave an abundance fitness of -0.043 ± 0.06.
Work on K29R yielded an abundance fitness of -0.023 ± 0.048.
For K29P, the abundance fitness was -0.497 ± 0.11.
Work on K29F yielded an abundance fitness of -0.005 ± 0.26.
P21Y gave an abundance fitness of -0.668 ± 0.11.
P21W gave an abundance fitness of -0.617 ± 0.12.
For P21S, the abundance fitness was -0.225 ± 0.079.
For P21F, the abundance fitness was -0.696 ± 0.21.
For P21G, the abundance fitness was -0.32 ± 0.067.
In the case of P21C, the abundance fitness is reported as -0.436 ± 0.11.
With E3F the abundance fitness was -0.039 ± 0.14.
In the case of E3A, the abundance fitness is reported as -0.258 ± 0.052.
E3W gave an abundance fitness of -0.4 ± 0.091.
Variant E3H has an abundance fitness of -0.323 ± 0.12.
In the case of E3D, the abundance fitness is reported as 0.103 ± 0.082.
S2R showed an abundance fitness of -0.282 ± 0.057.
S2D showed an abundance fitness of 0.311 ± 0.23.
With S2V the abundance fitness was -0.322 ± 0.083.
Variant S2P has an abundance fitness of -0.584 ± 0.22.
With S2M the abundance fitness was -0.514 ± 0.11.
M28R showed an abundance fitness of -1.14 ± 0.11.
M28H showed an abundance fitness of -0.549 ± 0.2.
For M28C, the abundance fitness was -0.75 ± 0.16.
With Q4T the abundance fitness was -0.202 ± 0.072.
Q4V gave an abundance fitness of 0.002 ± 0.06.
Variant Q4K has an abundance fitness of 0 ± 0.083.
Variant Q4H has an abundance fitness of -0.277 ± 0.18.
For Q4L, the abundance fitness was 0.016 ± 0.054.
For Q4S, the abundance fitness was 0.019 ± 0.056.
In the case of K24M, the abundance fitness is reported as -0.098 ± 0.12.
K24R showed an abundance fitness of -0.159 ± 0.066.
Work on K24H yielded an abundance fitness of -0.61 ± 0.34.
Work on K24P yielded an abundance fitness of -0.475 ± 0.12.
For K24D, the abundance fitness was -0.143 ± 0.1.
For K24T, the abundance fitness was -0.446 ± 0.3.
V7E gave an abundance fitness of 0.105 ± 0.07.
With V7R the abundance fitness was -0.139 ± 0.056.
V7F showed an abundance fitness of -0.038 ± 0.14.
Variant W23L has an abundance fitness of -0.233 ± 0.064.
In the case of W23T, the abundance fitness is reported as -0.228 ± 0.067.
With W23N the abundance fitness was -0.319 ± 0.09.
Work on W23C yielded an abundance fitness of -0.235 ± 0.11.
Work on W23E yielded an abundance fitness of 0.081 ± 0.063.
In the case of W23G, the abundance fitness is reported as -0.238 ± 0.056.
Work on W23M yielded an abundance fitness of -0.108 ± 0.14.
L20H gave an abundance fitness of -0.487 ± 0.1.
Work on L20F yielded an abundance fitness of -0.832 ± 0.18.
Work on L20E yielded an abundance fitness of -0.404 ± 0.09.
With L20P the abundance fitness was -0.759 ± 0.12.
L20C showed an abundance fitness of -0.847 ± 0.11.
I12H showed an abundance fitness of -0.633 ± 0.17.
With I12V the abundance fitness was -0.089 ± 0.069.
For I12S, the abundance fitness was -0.629 ± 0.064.
I12L gave an abundance fitness of -0.101 ± 0.07.
I12A showed an abundance fitness of -0.445 ± 0.083.
Work on I12E yielded an abundance fitness of -0.592 ± 0.12.
In the case of I12R, the abundance fitness is reported as -0.629 ± 0.058.
Variant I12P has an abundance fitness of -0.713 ± 0.092.
In the case of I12G, the abundance fitness is reported as -0.429 ± 0.062.
I12M showed an abundance fitness of 0.128 ± 0.079.
Variant I12K has an abundance fitness of -0.312 ± 0.11.
With K32S the abundance fitness was 0.015 ± 0.08.
Variant K32W has an abundance fitness of -0.365 ± 0.092.
With K32A the abundance fitness was 0.017 ± 0.066.
For K32M, the abundance fitness was 0.072 ± 0.1.
K32D showed an abundance fitness of -0.624 ± 0.14.
K32Q gave an abundance fitness of -0.122 ± 0.072.
In the case of K32N, the abundance fitness is reported as 0.122 ± 0.13.
Work on K32E yielded an abundance fitness of -0.175 ± 0.081.
E31R gave an abundance fitness of -0.464 ± 0.067.
E31Y gave an abundance fitness of -0.746 ± 0.22.
Work on E31T yielded an abundance fitness of -0.645 ± 0.13.
Variant E31H has an abundance fitness of -0.563 ± 0.5.
In the case of L1S, the abundance fitness is reported as -0.135 ± 0.084.
L1A showed an abundance fitness of -0.322 ± 0.2.
